9 molecules from patent US20220242958A1, “BISPECIFIC NANOBODIES” (Ablynx N.V., priority 2013, published 2022) can be followed below.

Common to all, as to format: binding
Experiment [1] deals with T1, recombinant IL-3Rα ectodomain (Homo sapiens, UniProt P26951).
T1 construct: Immobilisation of recombinant IL-3Rα ectodomain (Sino Biologicals) was done until 761 RU; purchased Sino Biologicals
T1 sequence (P26951 19-305 limits assumed): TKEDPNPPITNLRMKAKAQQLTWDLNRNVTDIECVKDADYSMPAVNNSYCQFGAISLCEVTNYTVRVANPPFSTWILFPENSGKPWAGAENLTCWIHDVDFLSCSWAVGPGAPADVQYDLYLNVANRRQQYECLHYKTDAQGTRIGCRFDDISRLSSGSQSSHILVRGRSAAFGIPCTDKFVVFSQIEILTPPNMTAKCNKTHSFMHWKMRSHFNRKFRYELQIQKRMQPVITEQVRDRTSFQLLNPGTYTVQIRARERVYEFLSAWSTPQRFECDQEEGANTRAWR
Description: SPR (ProteOn) on recombinant IL-3Rα ectodomain. The procedure: The affinities of CD123 specific Nanobodies were further investigated via Surface Plasmon Resonance (SPR) at ProteOn. Immobilisation of recombinant IL-3Rα ectodomain (Sino Biologicals) was done until 761 RU. The Nanobodies were applied at a highest concentration of 1 μM, followed by a three-fold titration, covering 5 further concentrations ranging from 1 μM to 4.1 nM. These were then applied in a single injection cycle, utilising the ProteOn's specific one-shot kinetics approach for kinetic analysis. Evaluation of the association/dissociation data was performed by fitting a 1:1 interaction model (Langmuir binding model). […] For CD123 Nanobodies the obtained KD values correlated well with the apparent affinities retrieved by cell binding EC50 values (see Table 3).

For experiment [2], the target named is T2, human IL-23R extracellular domain Fc-fusion (Homo sapiens, UniProt Q5VWK5).
T2 construct: Fc-fusions of human IL12Rβ1, IL12Rβ2 and IL-23R extracellular domains; purchased R&D Systems #1400-IR
T2 sequence (Q5VWK5 24-355 limits assumed): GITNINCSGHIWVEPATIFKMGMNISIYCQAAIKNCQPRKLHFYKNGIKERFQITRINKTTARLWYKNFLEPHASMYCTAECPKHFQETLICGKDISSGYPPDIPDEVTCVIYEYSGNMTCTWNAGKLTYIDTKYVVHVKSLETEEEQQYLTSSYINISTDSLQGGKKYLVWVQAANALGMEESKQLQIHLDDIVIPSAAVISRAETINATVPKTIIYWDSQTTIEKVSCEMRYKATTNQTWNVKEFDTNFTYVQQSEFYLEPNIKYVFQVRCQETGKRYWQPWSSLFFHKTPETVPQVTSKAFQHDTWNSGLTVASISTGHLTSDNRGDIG
Description: SPR (Biacore T100) on IL-23R-Fc. The procedure:
(§1) The precise binding affinities of the purified Nanobodies were determined in a multi-cycle kinetic analysis using Surface Plasmon Resonance analysis (Biacore T100) on Fc-fusions of human IL12Rβ1, IL12Rβ2 and IL-23R extracellular domains (R&D Systems, #839-B1, #1959-B2, #1400-IR). Sensorchips CM5 were immobilized with anti-hIgG antibody (GE Healthcare, BR-1008-39), after which receptors were captured at 5 μg/ml protein and contact time of 120 seconds. Running buffer used was HBS-EP+ (GE Healthcare, BR-1006-69) at 25° C., with a flow-rate of […]. For immobilization by amine coupling, EDC/NHS was used for activation and ethanolamine HCl for deactivation (Biacore, amine coupling kit). Nanobodies were evaluated at a concentration range between 1.37 nM and 3 μM. Nanobodies were allowed to associate for 2 min and to dissociate for 15 min at a flow rate of […]. In between injections, the surfaces were regenerated with a 3 min pulse of 3M MgCl2 and 2 min stabilization period. Evaluation of the association/dissociation data was performed by fitting a 1:1 interaction model (Langmuir binding model) by Biacore TWO software v2.0.3.
(In general: SPR reads the build-up and loss of mass on a sensor chip optically.)

Experiment [3] deals with T3, human IL12Rβ2 extracellular domain Fc-fusion (Homo sapiens, UniProt Q99665).
T3 construct: Fc-fusions of human IL12Rβ1, IL12Rβ2 and IL-23R extracellular domains; purchased R&D Systems #1959-B2
T3 sequence (Q99665 24-622 limits assumed): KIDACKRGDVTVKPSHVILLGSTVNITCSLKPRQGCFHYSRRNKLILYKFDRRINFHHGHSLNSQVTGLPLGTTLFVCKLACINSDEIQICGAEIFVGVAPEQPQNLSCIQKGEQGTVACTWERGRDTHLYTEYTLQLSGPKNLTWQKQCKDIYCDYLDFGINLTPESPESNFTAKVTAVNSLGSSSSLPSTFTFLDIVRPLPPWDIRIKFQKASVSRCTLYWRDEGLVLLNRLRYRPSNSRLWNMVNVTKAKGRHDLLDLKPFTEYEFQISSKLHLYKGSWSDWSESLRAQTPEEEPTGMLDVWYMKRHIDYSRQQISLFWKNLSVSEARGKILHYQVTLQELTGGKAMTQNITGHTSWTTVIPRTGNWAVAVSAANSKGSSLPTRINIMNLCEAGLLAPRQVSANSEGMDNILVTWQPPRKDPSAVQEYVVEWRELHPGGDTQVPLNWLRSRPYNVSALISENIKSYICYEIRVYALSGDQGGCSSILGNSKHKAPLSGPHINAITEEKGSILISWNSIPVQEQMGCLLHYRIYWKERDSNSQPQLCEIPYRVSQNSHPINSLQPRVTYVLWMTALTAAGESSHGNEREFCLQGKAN
Kind of experiment: SPR (Biacore T100) on IL12Rβ2-Fc. The procedure: as §1

A further experiment has as its target T4, hCEACAM5 (Homo sapiens, UniProt P06731).
T4 construct: purchased R&D Systems 4128-CM
T4 sequence (P06731 35-676): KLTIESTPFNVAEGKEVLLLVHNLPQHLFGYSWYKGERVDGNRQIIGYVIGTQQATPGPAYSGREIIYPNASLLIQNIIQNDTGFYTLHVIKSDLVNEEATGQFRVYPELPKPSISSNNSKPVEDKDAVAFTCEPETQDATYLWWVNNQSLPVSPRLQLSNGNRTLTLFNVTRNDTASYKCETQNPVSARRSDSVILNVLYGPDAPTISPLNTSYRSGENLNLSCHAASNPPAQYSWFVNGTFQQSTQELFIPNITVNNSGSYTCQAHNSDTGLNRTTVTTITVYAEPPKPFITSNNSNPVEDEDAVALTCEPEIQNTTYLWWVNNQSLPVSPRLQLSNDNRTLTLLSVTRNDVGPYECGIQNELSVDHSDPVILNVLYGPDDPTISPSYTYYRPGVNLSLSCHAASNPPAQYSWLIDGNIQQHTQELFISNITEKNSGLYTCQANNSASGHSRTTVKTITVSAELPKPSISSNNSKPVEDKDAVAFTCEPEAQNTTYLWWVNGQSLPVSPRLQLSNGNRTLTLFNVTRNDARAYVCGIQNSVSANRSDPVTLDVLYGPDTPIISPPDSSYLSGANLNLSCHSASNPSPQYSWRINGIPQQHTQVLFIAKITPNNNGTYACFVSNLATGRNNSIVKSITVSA
Kind of experiment: SPR (Biacore T100) on hCEACAM-5. The procedure:
In between injections, the surfaces were regenerated with a 5 sec pulse of 10 mM Glycine-HCl pH1.5 and 1 min stabilization period. Evaluation of the association/dissociation data was performed by fitting a 1:1 interaction model (Langmuir binding model) by Biacore T100 software v2.0.3. The affinity constant KD was calculated from resulting association and dissociation rate constants ka and kd and are shown in Table 4.2. The observed affinity of the NbCEA5 Nanobody (designated as CEA#1) and humanised variant (CEA#2) was in line with the reported value.

B1: 55B04: CD123 building block, SEQ ID NO: 9 (protein)
VHH: EVQLVESGGGLVQPGGSLRLSCAASGINFRFNSMGWWRRRAPGKEREWVAAITSGDITNYRDSVRGRFTISRDNVKNTVYLQMNTLKLEDTAVYYCNTFPPIADYWGLGTQVTVSS
Turning to B1, in experiment [1], the “SPR - IL-3Ra ka” value was 504000 M⁻¹ s⁻¹ and the “SPR - IL-3Ra kd” value worked out at 0.00794 s⁻¹.

B2: IL23R#19: IL-23R specific ligand competing Nanobody (protein)
VHH: EVQLVESGGGLVQPGGSLTLSCVASGRTFSTDVMGWFRQAPGKEREFVAAHRTSGISTVYAASVKGRFTISRDNAKNTVYLGMKSLKPEDTAVYVCAAGSDASGGYDYWGQGTLVTVSS
Consider B2, for which, in experiment [2], the “Binding kinetics (SPR) ka (1/Ms), IL-23R” value came out at 730000 M⁻¹ s⁻¹ and the “Binding kinetics (SPR) kd (1/s), IL-23R” value was 0.0081 s⁻¹.

B3: IL12Rb2#2: IL-12Rβ2 specific ligand competing Nanobody (protein)
VHH: EVQLVESGGRLVQAGDSLRLSCAASGRTFTSYRMGWFRQAPGKEREFVSALRWSSGNIDYTYYADSVKGRFSISGDYAKNTVYLQMNSLKAEDTAVYYCAASTRWGVMESDTEYTSWGQGTLVTVSS
With B3, in experiment [3], the “Binding kinetics (SPR) ka (1/Ms), IL12Rβ2” value came to 270000 M⁻¹ s⁻¹ and the “Binding kinetics (SPR) kd (1/s), IL12Rβ2” value worked out at 0.0018 s⁻¹.

B4: 50F07: CD123 building block, SEQ ID NO: 12 (protein)
VHH: EVQLVESGGGLVQPGGSLRLSCTGSGSTFSINAMGWYRQAPGKQRELVAAITSGGRTNYADSVKGRFTISRDNSKNTVYLQMNSLRPEDTAVYYCNARISAGTAFWLWSDYEYWGLGTLVTVSS
Regarding B4, in experiment [1], the “SPR - IL-3Ra ka” value was 102000 M⁻¹ s⁻¹ and the “SPR - IL-3Ra kd” value is 0.00758 s⁻¹.

B5: 51D09: CD123 building block, SEQ ID NO: 10 (protein)
VHH: EVQLVESGGGLVQPGGSLRLSCAASGSIFSGNTMGWYRQAPGKQRELVAAISSGGSTDYADSVKGRFTISRDNSKNTVYLQMNSLRPEDTAVYYCNAAILLYRLYGYEEGDYWGLGTLVTVSS
Regarding B5, in experiment [1], the “SPR - IL-3Ra ka” value worked out at 37800 M⁻¹ s⁻¹ and the “SPR - IL-3Ra kd” value came to 0.000516 s⁻¹.

B6: 55C05: CD123 building block, SEQ ID NO: 11 (protein)
VHH: EVQLVESGGGLVPAGDSLRLSCVASGRSLNTYTMGWFRQAPGKECEFVAAINWNGVYRDYADSAKGRFTASRDNAMNTVFLQMNSLKPEDTAVYFCATATQGWDRHTEPSDFGSWGLGTQVTVSS
As to B6, in experiment [1], the “SPR - IL-3Ra ka” value was 126000 M⁻¹ s⁻¹ and the “SPR - IL-3Ra kd” value was 0.00741 s⁻¹.

B7: 55F03: CD123 building block, SEQ ID NO: 13 (protein)
VHH: EVQLVESGGGLVQAGGPLRLSCAASGRTFSSYVMGWFRQAPGKEREFVAAIYWSNGKTQYTDSVKGRFTISGDNAKNTVYLQMNSLNPEDTAVYYCVADKDETGFRTLPIAYDYWGLGTQVTVSS
Consider B7, for which, in experiment [1], the “SPR - IL-3Ra ka” value worked out at 42500 M⁻¹ s⁻¹ and the “SPR - IL-3Ra kd” value came to 0.00487 s⁻¹.

B8: CEA#5: NbCEA5(K43Q, G47A, T73N, V78L) (protein)
VHH: EVQLVESGGGSVQAGGSLRLSCAASGDTYGSYWMGWFRQAPGQEREAVAAINRGGGYTVYADSVKGRFTISRDNAKNTLYLQMNSLRPDDTADYYCAASGVLGGLHEDWFNYWGQGTLVTVSS
For B8, in the experiment with hCEACAM5, the “hCEACAM5 ka” value worked out at 1.1e+06 M⁻¹ s⁻¹ and the “hCEACAM5 kd” value was 0.0033 s⁻¹.

B9: CEA#2: humanised NbCEA5 variant (S11L, A14P, K43Q, E44G, R45L, G47A, T73N, A74S, V78L, P84A, D85E, D89V) (protein)
VHH: EVQLVESGGGLVQPGGSLRLSCAASGDTYGSYWMGWFRQAPGQGLEAVAAINRGGGYTVYADSVKGRFTISRDNSKNTLYLQMNSLRAEDTAVYYCAASGVLGGLHEDWFNYWGQGTLVTVSS
As for B9, in the experiment with hCEACAM5, the “hCEACAM5 ka” value worked out at 1.3e+06 M⁻¹ s⁻¹ and the “hCEACAM5 kd” value came out at 0.0025 s⁻¹.
